Data: patent US20100292303A1, “GENE EXPRESSION PROFILE FOR PREDICTING OVARIAN CANCER PATIENT SURVIVAL” (priority 2007, published 2010)

B1: purified recombinant MAGP2 (microfibril associated glycoprotein 2) (ligand, UniProt Q13361 22-173, looked up)
chain: IPLGVNSQRGDDVTQATPETFTEDPNLVNDPATDETVLAVLADIAPSTDDLASLSEKNTTAECWDEKFTCTRLYSVHRPVKQCIHQLCFTSLRRMYIVNKEICSRLVCKEHEAMKDELCRQMAGLPPRRLRRSNYFRLPPCENVDLQRPNGL

Tests used:
[1] = system: ovarian cancer cells SKOV3; experiment: SKOV3 ovarian tumor growth and microvessel density in nude mice; format: in vivo
Description: The MAGP2 siRNA molecule had the following sequence: 5′-[…]-3′ (sense; SEQ ID NO: 1) and 5′-[…]-3′ (antisense; SEQ ID NO: 2). Five stable clones were selected for each group. A total of 5×10^5 cells from each clone were injected subcutaneously into the posterior neck region of 5 nude mice (6 to 8 week-old female nude mice, Charles River, Mass.). After 4 weeks, the mice were sacrificed and the tumors developed from each mouse were removed and weighed. They samples were subsequently fixed in formalin and processed for histological evaluation. MAGP2 expression in tumor tissues was evaluated using a rabbit anti-human MAGP2 antibody and the microvessel density was determined by immunolocalization of CD34+ blood vessels using a goat anti-mouse polyclonal antibody (FIG. 8A). Significant difference in the weight of the tumors between the MAGP2 siRNA and the control group were found as determined by Mann-Witney U test (FIG. 8B). A p value <0.05 was considered as significant.

[2] = target: αvβ3 integrin receptor (human, UniProt P06756 31-1048; P05106 27-788); experiment: cell-based or functional assay
αvβ3 integrin receptor, sequence (P06756 31-1048, chain 1 of 2): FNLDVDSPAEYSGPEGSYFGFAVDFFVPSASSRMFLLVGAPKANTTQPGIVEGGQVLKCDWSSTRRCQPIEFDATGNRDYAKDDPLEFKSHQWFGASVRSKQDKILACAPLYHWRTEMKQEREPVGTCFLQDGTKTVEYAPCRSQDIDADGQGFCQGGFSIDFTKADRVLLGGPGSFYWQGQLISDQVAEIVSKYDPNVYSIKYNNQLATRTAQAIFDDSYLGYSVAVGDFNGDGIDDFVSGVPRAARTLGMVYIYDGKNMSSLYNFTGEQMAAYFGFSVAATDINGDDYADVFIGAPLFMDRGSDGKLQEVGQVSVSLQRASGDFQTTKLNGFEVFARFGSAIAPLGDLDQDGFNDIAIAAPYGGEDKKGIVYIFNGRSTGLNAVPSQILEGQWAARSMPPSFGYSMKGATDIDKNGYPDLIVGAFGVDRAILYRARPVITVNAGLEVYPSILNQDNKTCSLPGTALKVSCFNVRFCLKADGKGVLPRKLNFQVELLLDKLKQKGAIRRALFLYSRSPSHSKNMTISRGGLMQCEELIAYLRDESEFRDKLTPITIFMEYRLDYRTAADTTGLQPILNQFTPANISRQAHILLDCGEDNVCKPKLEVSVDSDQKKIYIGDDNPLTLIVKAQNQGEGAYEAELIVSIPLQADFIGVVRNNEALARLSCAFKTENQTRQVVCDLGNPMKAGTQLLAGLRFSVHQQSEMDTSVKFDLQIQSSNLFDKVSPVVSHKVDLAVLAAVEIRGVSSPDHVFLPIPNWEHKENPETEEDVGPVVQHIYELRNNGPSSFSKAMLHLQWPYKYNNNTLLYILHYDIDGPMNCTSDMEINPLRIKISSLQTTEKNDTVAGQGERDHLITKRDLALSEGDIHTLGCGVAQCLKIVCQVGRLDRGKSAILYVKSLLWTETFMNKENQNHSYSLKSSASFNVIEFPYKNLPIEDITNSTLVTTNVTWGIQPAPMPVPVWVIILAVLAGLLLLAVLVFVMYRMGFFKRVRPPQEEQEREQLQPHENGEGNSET
αvβ3 integrin receptor, sequence (P05106 27-788, chain 2 of 2): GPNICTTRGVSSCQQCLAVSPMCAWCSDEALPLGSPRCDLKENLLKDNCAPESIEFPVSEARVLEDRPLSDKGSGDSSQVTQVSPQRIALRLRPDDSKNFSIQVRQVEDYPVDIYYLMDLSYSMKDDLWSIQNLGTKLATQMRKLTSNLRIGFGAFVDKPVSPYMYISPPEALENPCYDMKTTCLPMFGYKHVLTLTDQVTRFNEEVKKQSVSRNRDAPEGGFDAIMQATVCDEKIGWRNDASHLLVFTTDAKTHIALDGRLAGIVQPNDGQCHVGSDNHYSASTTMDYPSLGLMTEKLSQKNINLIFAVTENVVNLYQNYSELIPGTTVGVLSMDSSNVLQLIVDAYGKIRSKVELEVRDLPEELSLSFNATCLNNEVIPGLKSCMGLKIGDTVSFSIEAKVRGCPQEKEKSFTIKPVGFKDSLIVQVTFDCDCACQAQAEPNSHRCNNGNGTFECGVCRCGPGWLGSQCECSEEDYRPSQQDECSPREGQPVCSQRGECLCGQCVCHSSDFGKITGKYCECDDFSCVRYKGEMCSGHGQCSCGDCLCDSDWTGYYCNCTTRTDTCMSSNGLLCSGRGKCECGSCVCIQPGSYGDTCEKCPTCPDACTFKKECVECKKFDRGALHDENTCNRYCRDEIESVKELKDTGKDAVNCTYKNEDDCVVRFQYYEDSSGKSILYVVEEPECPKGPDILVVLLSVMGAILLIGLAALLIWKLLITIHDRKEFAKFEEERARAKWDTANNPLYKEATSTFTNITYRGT

[3] = system: A224 cells; experiment: A224 ovarian cancer cell adhesion on recMAGP2 coated wells; format: cell-based; settings: plated on recMAGP2 coated wells, relative to control wells; P<0.0005
Source text: (§1) Cell Lines and Culture Conditions. A224, UCI107 and OVCA429 ovarian cancer cell lines were maintained in RPMI (Invitrogen Life Technologies Inc, Carlsbad, Calif.) supplemented with 10% fetal bovine serum (Gemini Bio-Products, Woodland, Calif.) and 1% L-glutamine (Invitrogen Life Technologies).
(§2) Screening a serous ovarian cancer cell line panel for MAGP2 expression by qRT-PCR (FIG. 4A) and western blot, as well as αvβ3 receptor status through FACs analysis (FIG. 4B, select cell lines only), facilitated the selection of cell lines amenable for downstream examination. Quantitative RT-PCR was performed as described in Example 1. Among cell lines expressing MAGP2, only the SKOV3 cell line co-expressed the αvβ3 receptor. Two cell lines, A224 and OVCA429, were positive for αvβ3, yet lacked measurable levels of MAGP2. These cell lines were chosen for subsequent analyses involving the recombinant protein along with UCI107, which was negative for both the receptor and MAGP2.
(§3) The effect of recMAGP2 on adhesion was evaluated for A224 and UCI107 cell lines.

[4] = system: UCI107 cells; experiment: UCI107 ovarian cancer cell adhesion on recMAGP2; format: cell-based; settings: UCI107 negative for αvβ3 receptor and MAGP2
Source text: as §1, §2, §3

[5] = system: OVCA429 cells; experiment: OVCA429 cell survival under increasing concentrations of recMAGP2; format: cell-based; settings: 200 ng/ml recMAGP2, 96 hours; P<0.01
Source text: as §1
Based on the pathway analysis, αvβ3 mediated signaling was implicated in ovarian tumor cell survival through the stimulation of critical cell-cycle checkpoint regulators. To assess this observation, OVCA429 cells were cultured under increasing concentrations of purified recMAGP2 and harvested at 24-hour intervals.

[6] = system: HUVE cells; experiment: HUVE cell motility assay (FluoroBlok insert, recMAGP2 as chemoattractant); format: cell-based, human; settings: 2.5 hours, compared to medium alone, P<0.05
Description: Cell motility was evaluated for HUVE cells (5×10^4) by adding them to the top chamber of a BD Falcon HTS FluoroBlok insert with a PET membrane with eight […] pore (BD Biosciences) in […] of medium with 0.2% FBS. The inserts were placed into the bottom chamber wells of a 24-well plate containing medium with increasing concentrations of recombinant MAGP2. After 2.5 hr, cells that migrated through the pores of the membrane to the bottom chamber were stained with calcein […] (Molecular Probes, Eugene, Oreg.) in PBS for 30 min at 37° C. The fluorescence of migrated cells was quantified using a fluorometer set at 485 nm excitation and 530 nm emission. Parallel control experiments were performed using the MAGP2 elution buffer. HUVECs motility was mediated through αvβ3 integrin, cells were pre-treated either with an anti-αvβ3 integrin antibody (Santa Cruz Laboratories #sc-7312) or with an equal amount of IgG (ICL #RS-90G1) for 30 minutes before the addition of 100 ng/ml MAGP2. The motility assay was then performed as described above.
(§4) To determine the effect of recMAGP2 on the HUVE cell motility, recMAGP2 was used as a chemoattractant. […] Similarly, exposing HUVE cells seeded onto Matrigel matrix to reMAGP2 stimulated a 2-fold increase in invasion (P<0.05) (FIG. 5D).

[7] = system: HUVE cells; experiment: HUVE cell invasion through Matrigel; format: cell-based, human; settings: cells seeded onto Matrigel matrix; P<0.05
Description: (§5) HUVE cell invasion was measured by adding cells (5×10^4) to the top chamber of a BD Falcon HTS FluoroBlok insert with a PET membrane coated with a thin layer of Matrigel. To evaluate the effect of MAGP2 on HUVE cell proliferation, 1,000 HUVECs/well were plated in 8 wells of a 96-well plate in EBM2 with 2.0% FBS. The next day the media were removed and replaced with 0.2% FBS media with elute buffer control or with recombinant MAGP2 protein at 4.5 ng/ml. After 2 days, elute control or MAGP2 was added a second time. Cell number was quantified via MTT assay.
as §4

[8] = system: HUVE cells; experiment: HUVE cell survival under low serum (MTT assay); format: cell-based, human; settings: 5 days, P<0.005
Description: as §5
In addition to motility and invasion, HUVE cell survival under low serum conditions was prolonged by recMAGP2.

[9] = system: FAK; experiment: FAK phosphorylation (tyrosine 407) western blot in HUVE cells; format: cell-based, human; settings: 100 ng/ml, 30 minutes
Description: Western Blot Analysis. To assess FAK phosphorylation in HUVE cells, cells were plated on 60 mm^2 dishes treated with 100 ng/ml MAGP2 recombinant protein or elute buffer control. After 30 minutes the cells were washed with 4° C. PBS and lysed in RIPA buffer containing 0.1% SDS and proteinase inhibitors. Western blotting was then performed with 5 μg of protein under denaturing conditions on a 4-12% NuPAGE gel and transferred to a PVDF membrane. The membrane was blocked in 5% nonfat milk for 1 hr at RT, probed with a 1:1000 dilution of anti-FAK[pY^407] rabbit polyclonal 1° antibody (Biosource) for 2 hr at RT. The blot was washed 3 times for 5 min with TBST and probed with a 1:2000 dilution of goat anti-rabbit HRP conjugated 2° antibody (Amersham) for 1 hr at RT. The blot was washed 3 times for 10 min with TBST and bands were detected via chemiluminscence using an ECL kit (Amersham).
Since FAK is a mediator of αvβ3 signaling, the phosphorylation status of FAK in recMAGP2 treated cells was confirmed. Using a phosphorylation specific antibody recognizing tyrosine 407, a western blot comparing phospho-FAK to total FAK was completed for both treated and untreated HUVE cell isolates.

[10] = system: HUVE cells; experiment: Ca2+ oscillation in HUVE cells (fluo-4/AM, confocal microscope); format: cell-based, human
Description: To identify the mechanism underlying the stimulation of FAK by recMAGP2, Ca^2+ oscillation was assessed in treated HUVE cells. […] This may account in part for the enhanced motility and survival of HUVE cells as described in the pathway analysis.

[11] = system: HUVE cells; experiment: Affymetrix U133 Plus 2.0 microarray of recMAGP2 treated HUVE cells; format: cell-based, human; settings: P<0.01 and fold-change ≧1.5; treated n=3 vs untreated n=3
Source text: The marked effect of recMAGP2 on HUVE cell behavior indicated a change in cellular regulation had taken place possibly affecting gene expression. To explore the consequences of recMAGP2 induced signaling, Affymetrix® U133 Plus 2.0 microarrays were completed for a series of recMAGP2 treated (n=3) and untreated (n=3) HUVE cell isolates. A total of 274 probe sets were identified for pathway analysis in cells exposed to recMAGP2 (P<0.01 and fold-change ≧1.5) (FIG. 6A). […] Deregulation of these genes may lead to a reduction in vessel integrity permitting endothelial cell migration and neovascularization.

Molecule	weight of the tumors ([1]; SKOV3 stably transfected, subcutaneous, nude mice, 4 weeks, vs empty vector, Mann-Witney U test p<0.05)	CD34 (microvessel density) in tumor tissues ([1]; immunolocalization of CD34+ blood vessels, FIG. 8A)	MAGP2 expression in tumor tissues ([1]; immunostaining, FIG. 8A)	adhesion of HUVE cells plated on recMAGP2 [2] [fold]	A224 cell adhesion [3]	UCI107 cell adhesion [4]	OVCA429 cell survival [5]	HUVE cell motility [6]	increase in HUVE cell invasion [7] [fold]	HUVE cell survival under low serum conditions [8]	phosphorylated FAK (tyrosine 407) versus total FAK [9]	[Ca2+]I levels ([10]; HUVE cells loaded with fluo-4/AM)	[Ca2+]I oscillation frequency ([10]; individual HUVE cells) [s/cycle]	probe sets identified in cells exposed to recMAGP2 [11]
MAGP2 siRNA: siRNA 5′-ACCGGTTAAACAATGCATTCAT-3′ (sense; SEQ ID NO: 1) and 5′-ATGAATGCATTGTTTAACCGGC-3′ (antisense; SEQ ID NO: 2) (listed as DNA, chemistry not fully specified)	significantly decrease the weight	decreased	decreased MAGP2 expression											
B1				2.5	increase in adhesion	only a modest increase in adhesion at high concentrations	significant difference in survival	increased the motility of the cells in a dose dependent manner	2	prolonged	increase in phosphorylated FAK	immediate increase	100	274
